Measurements published in paper PMC6940745 (International Journal of Molecular Sciences, 2019).
[ ]: non-standard residue; d: D form. The star is where a group is joined. N(indol-3-ylmethyl)Gly = O=C(O)CNCc1c[nH]c2ccccc12; Bz = O=C(c1ccccc1)*; NPr2 = CCCN(CCC)*

Tests used:
[1] = biological target: Melanocortin-1 receptor (MC1R), human recombinant, in CHO-K1 cells (human) (UniProt Q01726)
[2] = biological target: Melanocortin-1 receptor (MC1R), human recombinant, in CHO-K1 cells (human) (UniProt Q01726); remark: listed apart in the source
[3] = biological target: Endothelin B-receptor (ETBR), human (human) (UniProt P24530)
[4] = biological target: Melanin-concentrating hormone receptor MCH1R, human (human) (UniProt Q99705)
[5] = biological target: Melanin-concentrating hormone receptor MCH2R, human (human) (UniProt Q969V1)
[6] = biological target: Melanocortin-2 receptor (MC2R), recombinant, in CHO-K1 cells (human) (UniProt Q01718)
[7] = biological target: Melanocortin-3 receptor (MC3R), recombinant, in CHO-K1 cells (human) (UniProt P41968)
[8] = biological target: Melanocortin-4 receptor (MC4R), recombinant, in CHO-K1 cells (human) (UniProt P32245)
[9] = biological target: Melanocortin-5 receptor (MC5R), recombinant, in CHO-K1 cells (human) (UniProt P33032)
Melatonin receptor MT1R = Melatonin receptor MT1R (UniProt P48039)
Melatonin receptor MT2R = biological target: T1, Melatonin receptor MT2R (UniProt P49286)
T1 sequence: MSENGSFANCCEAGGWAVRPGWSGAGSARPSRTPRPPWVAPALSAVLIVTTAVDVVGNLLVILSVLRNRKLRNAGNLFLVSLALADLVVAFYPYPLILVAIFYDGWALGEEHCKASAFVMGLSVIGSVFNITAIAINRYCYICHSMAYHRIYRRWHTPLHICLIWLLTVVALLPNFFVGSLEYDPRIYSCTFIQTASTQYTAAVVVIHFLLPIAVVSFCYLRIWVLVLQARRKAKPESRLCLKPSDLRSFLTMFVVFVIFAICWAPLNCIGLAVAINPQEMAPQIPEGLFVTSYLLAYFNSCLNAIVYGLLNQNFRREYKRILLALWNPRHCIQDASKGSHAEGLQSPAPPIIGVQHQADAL

[10] = biological target: Opioid receptor OP1R (human delta opioid receptor) (human) (UniProt P41143)
[11] = biological target: Opioid receptor OP2R (human kappa opioid receptor) (human) (UniProt P41145)
[12] = biological target: Opioid receptor OP3R (human mu opioid receptor) (human) (UniProt P35372)
[13] = biological target: Serotonin receptor 5-HT2AR, human (human) (UniProt P28223)

Melanocortin-1 receptor (MC1R), human recombinant, in CHO-K1 cells (human), sequence (Q01726 whole entry): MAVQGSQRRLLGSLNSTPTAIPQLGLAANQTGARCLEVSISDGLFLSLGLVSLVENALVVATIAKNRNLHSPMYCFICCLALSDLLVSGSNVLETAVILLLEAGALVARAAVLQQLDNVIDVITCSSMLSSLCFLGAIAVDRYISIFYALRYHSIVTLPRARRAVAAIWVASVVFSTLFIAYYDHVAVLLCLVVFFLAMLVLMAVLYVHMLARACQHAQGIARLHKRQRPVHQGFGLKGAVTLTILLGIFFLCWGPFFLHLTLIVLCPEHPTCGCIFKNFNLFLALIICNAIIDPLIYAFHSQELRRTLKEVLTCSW
Melanocortin-4 receptor (MC4R), recombinant, in CHO-K1 cells (human), sequence (P32245 whole entry): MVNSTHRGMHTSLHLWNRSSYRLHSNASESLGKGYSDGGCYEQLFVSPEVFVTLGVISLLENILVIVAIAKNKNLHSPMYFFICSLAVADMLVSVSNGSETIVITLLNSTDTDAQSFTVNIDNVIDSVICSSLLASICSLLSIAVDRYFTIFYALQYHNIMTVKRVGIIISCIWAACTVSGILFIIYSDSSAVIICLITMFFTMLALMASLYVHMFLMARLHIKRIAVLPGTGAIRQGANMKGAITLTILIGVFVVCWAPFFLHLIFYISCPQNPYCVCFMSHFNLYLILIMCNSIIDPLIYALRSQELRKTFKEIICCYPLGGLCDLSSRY
Melanocortin-3 receptor (MC3R), recombinant, in CHO-K1 cells (human), sequence (P41968 whole entry): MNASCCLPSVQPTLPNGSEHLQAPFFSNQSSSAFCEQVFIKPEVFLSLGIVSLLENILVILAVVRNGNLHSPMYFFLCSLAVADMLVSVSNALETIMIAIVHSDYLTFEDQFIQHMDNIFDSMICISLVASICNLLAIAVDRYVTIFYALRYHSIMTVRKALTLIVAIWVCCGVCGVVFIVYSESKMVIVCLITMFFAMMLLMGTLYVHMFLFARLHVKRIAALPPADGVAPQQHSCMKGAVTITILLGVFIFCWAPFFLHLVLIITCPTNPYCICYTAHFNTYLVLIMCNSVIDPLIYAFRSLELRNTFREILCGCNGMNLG
Melanin-concentrating hormone receptor MCH1R, human (human), sequence (Q99705 whole entry): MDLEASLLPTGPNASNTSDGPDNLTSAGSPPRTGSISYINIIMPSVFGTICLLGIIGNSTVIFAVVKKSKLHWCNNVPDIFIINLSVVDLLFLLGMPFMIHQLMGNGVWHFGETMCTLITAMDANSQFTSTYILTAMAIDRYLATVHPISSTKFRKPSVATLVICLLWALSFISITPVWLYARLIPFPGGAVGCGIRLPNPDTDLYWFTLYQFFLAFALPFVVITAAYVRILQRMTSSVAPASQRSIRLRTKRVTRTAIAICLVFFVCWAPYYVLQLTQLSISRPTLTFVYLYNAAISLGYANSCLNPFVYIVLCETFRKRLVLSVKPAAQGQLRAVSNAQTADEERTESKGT
Melanin-concentrating hormone receptor MCH2R, human (human), sequence (Q969V1 whole entry): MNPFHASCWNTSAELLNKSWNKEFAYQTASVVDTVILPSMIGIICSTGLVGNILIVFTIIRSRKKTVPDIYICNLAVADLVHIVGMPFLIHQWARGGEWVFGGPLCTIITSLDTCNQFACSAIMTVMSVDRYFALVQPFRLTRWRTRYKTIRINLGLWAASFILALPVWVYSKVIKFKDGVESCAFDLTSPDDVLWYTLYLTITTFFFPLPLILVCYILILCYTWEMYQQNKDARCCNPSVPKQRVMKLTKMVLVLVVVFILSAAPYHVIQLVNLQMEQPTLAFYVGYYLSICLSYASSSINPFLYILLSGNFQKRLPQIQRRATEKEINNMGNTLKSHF
Endothelin B-receptor (ETBR), human (human), sequence (P24530 27-442): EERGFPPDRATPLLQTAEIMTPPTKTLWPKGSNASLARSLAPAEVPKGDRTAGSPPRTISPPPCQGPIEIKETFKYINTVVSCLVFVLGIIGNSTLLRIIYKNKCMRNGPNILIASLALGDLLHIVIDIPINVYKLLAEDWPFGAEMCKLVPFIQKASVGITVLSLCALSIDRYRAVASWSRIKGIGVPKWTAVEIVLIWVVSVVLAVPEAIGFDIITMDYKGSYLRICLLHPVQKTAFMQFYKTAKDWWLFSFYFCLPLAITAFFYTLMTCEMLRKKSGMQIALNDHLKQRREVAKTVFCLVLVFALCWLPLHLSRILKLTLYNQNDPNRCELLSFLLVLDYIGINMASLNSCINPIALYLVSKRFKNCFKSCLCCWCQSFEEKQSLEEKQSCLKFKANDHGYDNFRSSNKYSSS
Melanocortin-5 receptor (MC5R), recombinant, in CHO-K1 cells (human), sequence (P33032 whole entry): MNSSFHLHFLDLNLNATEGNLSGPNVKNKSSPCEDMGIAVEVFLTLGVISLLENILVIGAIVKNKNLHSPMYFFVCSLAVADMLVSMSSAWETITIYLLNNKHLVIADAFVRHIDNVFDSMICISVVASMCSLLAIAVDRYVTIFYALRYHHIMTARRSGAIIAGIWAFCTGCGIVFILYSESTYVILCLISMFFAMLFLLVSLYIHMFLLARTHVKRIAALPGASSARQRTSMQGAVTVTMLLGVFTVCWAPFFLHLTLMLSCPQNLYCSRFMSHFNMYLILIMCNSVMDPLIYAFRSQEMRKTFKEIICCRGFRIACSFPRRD
Melatonin receptor MT1R, sequence (P48039 whole entry): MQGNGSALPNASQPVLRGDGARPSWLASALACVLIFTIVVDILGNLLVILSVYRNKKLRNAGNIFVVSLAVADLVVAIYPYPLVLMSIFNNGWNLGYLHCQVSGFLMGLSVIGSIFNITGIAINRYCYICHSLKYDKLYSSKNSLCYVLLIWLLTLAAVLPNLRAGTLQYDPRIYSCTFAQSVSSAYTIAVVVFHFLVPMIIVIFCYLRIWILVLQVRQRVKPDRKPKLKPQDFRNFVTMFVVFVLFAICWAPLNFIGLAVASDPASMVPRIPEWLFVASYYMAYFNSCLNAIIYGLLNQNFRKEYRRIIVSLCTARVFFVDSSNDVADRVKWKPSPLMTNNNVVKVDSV
Melanocortin-2 receptor (MC2R), recombinant, in CHO-K1 cells (human), sequence (Q01718 whole entry): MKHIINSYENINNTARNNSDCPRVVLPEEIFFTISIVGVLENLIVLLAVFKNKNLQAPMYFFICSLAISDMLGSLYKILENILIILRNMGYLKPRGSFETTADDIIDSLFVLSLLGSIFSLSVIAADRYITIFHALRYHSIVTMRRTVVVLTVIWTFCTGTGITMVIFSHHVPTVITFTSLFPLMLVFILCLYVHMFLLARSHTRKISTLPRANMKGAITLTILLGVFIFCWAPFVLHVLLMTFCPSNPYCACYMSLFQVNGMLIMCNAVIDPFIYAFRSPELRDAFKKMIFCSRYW

MC1R-agonist pentapeptide 2 (Bz-Gly-His-D-Phe-Arg-L-NaphAla-NH2)
EC50 of MC1R activation (cAMP HTRF assay, CHO-K1 cells expressing human MC1R) [1]: 0.11 nM

MC1R-agonist pentapeptide 3 (Bz-Gly-His-D-Phe-Arg-D-NaphAla-NH2)
EC50 of MC1R activation (cAMP HTRF assay, CHO-K1 cells expressing human MC1R) [1]: 0.25 nM

MC1R-agonist pentapeptide 8 (Bz-Gly-His-D-Phe-Dab-L-Trp-NH2)
EC50 of MC1R activation (cAMP HTRF assay, CHO-K1 cells expressing human MC1R) [1]: 7.51 nM

NDP-alpha-MSH [Nle^4, D-Phe^7] (peptide)
EC50 of MC1R activation (cAMP production, recombinant CHO-MC1R cell line; control compound) [2]: 0.071 nM

B1: MC1R-agonist pentapeptide 4 (Bz-Gly-His-D-Phe-Arg-D-Trp-N(Propyl)2) (peptide)
peptide: Bz-GH[dF]R[dW]-NPr2
SMILES: CCCN(CCC)C(=O)[C@@H](Cc1c[nH]c2ccccc12)NC(=O)[C@H](CCCNC(=N)N)NC(=O)[C@@H](Cc1ccccc1)NC(=O)[C@H](Cc1c[nH]cn1)NC(=O)CNC(=O)c1ccccc1
EC50 of MC1R activation (cAMP HTRF assay, CHO-K1 cells expressing human MC1R) [1]: 0.42 nM | EC50 of receptor activation (Aequorin assay, recombinant cells; eight concentrations from 0.01 to 100,000 nM) [3]: > 100000 nM | EC50 of receptor activation (Aequorin assay, recombinant cells; eight concentrations from 0.01 to 100,000 nM) [4]: > 100000 nM | EC50 of receptor activation (Aequorin assay, recombinant cells; eight concentrations from 0.01 to 100,000 nM) [5]: > 100000 nM | EC50 of receptor activation (cAMP HTRF assay, CHO-K1 cells; eight concentrations from 0.01 to 100,000 nM) [6]: > 100000 nM | EC50 of receptor activation (cAMP HTRF assay, CHO-K1 cells; eight concentrations from 0.01 to 100,000 nM) [7]: 877 nM | EC50 of receptor activation (cAMP HTRF assay, CHO-K1 cells; eight concentrations from 0.01 to 100,000 nM) [8]: 136 nM | EC50 of receptor activation (cAMP HTRF assay, CHO-K1 cells; eight concentrations from 0.01 to 100,000 nM) [9]: > 100000 nM | EC50 of receptor activation (GTPγ[35S] scintillation proximity assay on CHO-K1 membrane preparations; eight concentrations from 0.01 to 100,000 nM) (Melatonin receptor MT1R): > 100000 nM | EC50 of receptor activation (GTPγ[35S] scintillation proximity assay on CHO-K1 membrane preparations; eight concentrations from 0.01 to 100,000 nM) (Melatonin receptor MT2R): > 100000 nM | EC50 of receptor activation (GTPγ[35S] scintillation proximity assay on CHO-K1 membrane preparations; eight concentrations from 0.01 to 100,000 nM) [10]: > 100000 nM | EC50 of receptor activation (GTPγ[35S] scintillation proximity assay on CHO-K1 membrane preparations; eight concentrations from 0.01 to 100,000 nM) [11]: > 100000 nM | EC50 of receptor activation (GTPγ[35S] scintillation proximity assay on CHO-K1 membrane preparations; eight concentrations from 0.01 to 100,000 nM) [12]: > 100000 nM | EC50 of receptor activation (Aequorin assay, recombinant cells; eight concentrations from 0.01 to 100,000 nM) [13]: > 100000 nM

Bz-GH[dF]R[N(indol-3-ylmethyl)Gly]-NH2 [MC1R-agonist pentapeptide 7 (Bz-Gly-His-D-Phe-Arg-[N-(CH2-3-indolyl)Gly]-NH2)]
EC50 of MC1R activation (cAMP HTRF assay, CHO-K1 cells expressing human MC1R) [1]: 4.4 nM

B2: MC1R-agonist pentapeptide 1 (Bz-Gly-His-D-Phe-Arg-L-Trp-NH2) (peptide)
peptide: Bz-GH[dF]RW-NH2
SMILES: N=C(N)NCCC[C@H](NC(=O)[C@@H](Cc1ccccc1)NC(=O)[C@H](Cc1c[nH]cn1)NC(=O)CNC(=O)c1ccccc1)C(=O)N[C@@H](Cc1c[nH]c2ccccc12)C(N)=O
EC50 of MC1R activation (cAMP HTRF assay, CHO-K1 cells expressing human MC1R) [1]: 0.041 nM

B3: MC1R-agonist pentapeptide 5 (Bz-Gly-His-D-Phe-Arg-L-Trp-N(Propyl)2) (peptide)
peptide: Bz-GH[dF]RW-NPr2
SMILES: CCCN(CCC)C(=O)[C@H](Cc1c[nH]c2ccccc12)NC(=O)[C@H](CCCNC(=N)N)NC(=O)[C@@H](Cc1ccccc1)NC(=O)[C@H](Cc1c[nH]cn1)NC(=O)CNC(=O)c1ccccc1
EC50 of MC1R activation (cAMP HTRF assay, CHO-K1 cells expressing human MC1R) [1]: 0.88 nM

B4: MC1R-agonist pentapeptide 6 (Bz-Gly-His-D-Phe-Arg-D-Phe-NH2) (peptide)
peptide: Bz-GH[dF]R[dF]-NH2
SMILES: N=C(N)NCCC[C@H](NC(=O)[C@@H](Cc1ccccc1)NC(=O)[C@H](Cc1c[nH]cn1)NC(=O)CNC(=O)c1ccccc1)C(=O)N[C@H](Cc1ccccc1)C(N)=O
EC50 of MC1R activation (cAMP HTRF assay, CHO-K1 cells expressing human MC1R) [1]: 1.79 nM
